According to the RNAGym collection of RNA variant scans (doi:10.7554/elife.80360):

B1: CPEB3 Ribozyme (parent)
chain: GGGGGCCACAGCAGAAGCGUUCACGUCGCGGCCCCUGUCAGAUUCUGGUGAAUCUGCGAAUUCUGCUGU

Variants of: B1
Assay: self-cleavage, relative activity (ratio to wild type); higher = more cleavage; co-transcriptional

| Variant | self-cleavage |
| --- | --- |
| G25C G48C | 0.147 |
| G25C G50C | 0.179 |
| G25C G56C | 0.164 |
| G25C G56U | 0.256 |
| G25C G58A | 0.212 |
| G25C G58U | 0.134 |
| G25C G65A | 0.216 |
| G25C U26A | 0.252 |
| G25C U26C | 0.319 |
| G25C U26G | 0.176 |
| G25C U36A | 0.201 |
| G25C U36C | 0.24 |
| G25C U43A | 0.139 |
| G25C U44C | 0.144 |
| G25C U44G | 0.139 |
| G25C U46C | 0.218 |
| G25C U49C | 0.185 |
| G25C U53A | 0.125 |
| G25C U61A | 0.193 |
| G25C U61C | 0.0705 |
| G25C U64C | 0.181 |
| G25C U64G | 0.155 |
| G25C U67C | 0.115 |
| G25C U69A | 0.221 |

| Variant | self-cleavage |
| --- | --- |
| G25C U69G | 0.309 |
| G25U A42G | 0.129 |
| G25U A59G | 0.174 |
| G25U A60C | 0.132 |
| G25U A60G | 0.229 |
| G25U A60U | 0.13 |
| G25U C27A | 0.213 |
| G25U C27U | 0.164 |
| G25U C29U | 0.206 |
| G25U C32A | 0.162 |
| G25U C32U | 0.228 |
| G25U C34A | 0.153 |
| G25U C35U | 0.139 |
| G25U C39A | 0.137 |
| G25U C45G | 0.133 |
| G25U C63G | 0.175 |
| G25U C66A | 0.133 |
| G25U C66G | 0.187 |
| G25U G28U | 0.145 |
| G25U G30U | 0.162 |
| G25U G37A | 0.156 |
| G25U G37U | 0.103 |
| G25U G41C | 0.103 |
| G25U G41U | 0.173 |

| Variant | self-cleavage |
| --- | --- |
| G25U G47A | 0.188 |
| G25U G47U | 0.148 |
| G25U G56A | 0.171 |
| G25U G56C | 0.158 |
| G25U G56U | 0.134 |
| G25U G58U | 0.186 |
| G25U G65A | 0.184 |
| G25U G65U | 0.187 |
| G25U G68A | 0.204 |
| G25U U26G | 0.0885 |
| G25U U36G | 0.155 |
| G25U U38A | 0.168 |
| G25U U38C | 0.13 |
| G25U U43A | 0.0919 |
| G25U U43C | 0.122 |
| G25U U43G | 0.148 |
| G25U U49A | 0.12 |
| G25U U55C | 0.229 |
| G25U U61A | 0.175 |
| G25U U61C | 0.179 |
| G25U U62A | 0.158 |
| G25U U62G | 0.116 |
| G25U U64G | 0.189 |
| G25U U69A | 0.136 |

| Variant | self-cleavage |
| --- | --- |
| U26A A40U | 0.531 |
| U26A A42U | 0.863 |
| U26A A51C | 0.871 |
| U26A A51G | 0.889 |
| U26A A59C | 0.322 |
| U26A A60C | 0.285 |
| U26A C27A | 0.424 |
| U26A C29A | 0.46 |
| U26A C29U | 0.36 |
| U26A C33A | 0.682 |
| U26A C33U | 0.85 |
| U26A C34A | 0.436 |
| U26A C35G | 0.207 |
| U26A C39A | 0.477 |
| U26A C39G | 0.798 |
| U26A C39U | 0.722 |
| U26A C45A | 0.828 |
| U26A C45G | 0.895 |
| U26A C45U | 0.879 |
| U26A C54A | 0.655 |
| U26A C54G | 0.758 |
| U26A C57A | 0.355 |
| U26A C63G | 0.507 |
| U26A C63U | 0.779 |

| Variant | self-cleavage |
| --- | --- |
| U26A G28U | 0.211 |
| U26A G30C | 0.266 |
| U26A G30U | 0.254 |
| U26A G31C | 0.18 |
| U26A G31U | 0.27 |
| U26A G41A | 0.561 |
| U26A G41U | 0.67 |
| U26A G47C | 0.891 |
| U26A G48U | 0.928 |
| U26A G50U | 0.818 |
| U26A G56A | 0.748 |
| U26A G58A | 0.627 |
| U26A G58C | 0.792 |
| U26A G58U | 0.852 |
| U26A G65C | 0.466 |
| U26A G65U | 0.466 |
| U26A G68C | 0.964 |
| U26A G68U | 0.901 |
| U26A U43A | 0.846 |
| U26A U44C | 0.768 |
| U26A U46C | 0.809 |
| U26A U49A | 0.866 |
| U26A U49C | 0.79 |
| U26A U49G | 0.866 |

| Variant | self-cleavage |
| --- | --- |
| U26A U55A | 0.745 |
| U26A U61A | 0.515 |
| U26A U62C | 0.669 |
| U26A U62G | 0.652 |
| U26A U64C | 0.72 |
| U26A U67A | 0.913 |
| U26A U69A | 0.938 |
| U26C A42G | 0.924 |
| U26C A60G | 0.85 |
| U26C C27A | 0.45 |
| U26C C27G | 0.195 |
| U26C C27U | 0.182 |
| U26C C32A | 0.753 |
| U26C C32U | 0.974 |
| U26C C33U | 0.997 |
| U26C C34A | 0.731 |
| U26C C34U | 0.935 |
| U26C C35A | 0.254 |
| U26C C39A | 0.79 |
| U26C C45A | 0.936 |
| U26C C45G | 0.983 |
| U26C C57U | 0.408 |
| U26C C66U | 0.939 |
| U26C G28C | 0.1 |

| Variant | self-cleavage |
| --- | --- |
| U26C G30C | 0.486 |
| U26C G37C | 0.178 |
| U26C G48U | 1.01 |
| U26C G50A | 0.953 |
| U26C G56A | 0.855 |
| U26C G65U | 0.604 |
| U26C G68C | 1.03 |
| U26C U36G | 0.123 |
| U26C U43A | 0.865 |
| U26C U43C | 0.892 |
| U26C U49A | 0.984 |
| U26C U53A | 0.958 |
| U26C U53G | 0.873 |
| U26C U55G | 0.74 |
| U26C U62G | 0.694 |
| U26C U69G | 1.06 |
| U26G A42G | 0.78 |
| U26G A59U | 0.455 |
| U26G A60C | 0.361 |
| U26G A60G | 0.631 |
| U26G C27A | 0.458 |
| U26G C29A | 0.329 |
| U26G C32U | 0.922 |
